{
  "source": "paper PMC7904734",
  "about": "“ORP/Osh mediate cross-talk between ER-plasma membrane contact site components and plasma membrane SNAREs” (Cellular and Molecular Life Sciences: CMLS, 2020)",
  "key": {"[1]": {"molecular_target": "YFP(C)·Sec22p (S. cerevisiae) (UniProt P22214)", "sequence (P22214 whole entry)": "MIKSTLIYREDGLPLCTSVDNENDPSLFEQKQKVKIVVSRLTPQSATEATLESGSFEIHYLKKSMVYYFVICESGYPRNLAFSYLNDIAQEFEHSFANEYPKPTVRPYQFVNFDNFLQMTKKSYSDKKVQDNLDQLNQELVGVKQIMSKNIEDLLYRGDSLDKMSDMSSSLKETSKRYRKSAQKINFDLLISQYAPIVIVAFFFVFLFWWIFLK", "experiment": "split reporter (BiFC, NanoBiT); BiFC in living Δosh1-3 yeast cells (Y36), compared with wt (Y2)"}, "[2]": {"molecular_target": "T1, Venus(C)·VAPA (lentiviral) (human), Q9P0L0", "T1 chain": "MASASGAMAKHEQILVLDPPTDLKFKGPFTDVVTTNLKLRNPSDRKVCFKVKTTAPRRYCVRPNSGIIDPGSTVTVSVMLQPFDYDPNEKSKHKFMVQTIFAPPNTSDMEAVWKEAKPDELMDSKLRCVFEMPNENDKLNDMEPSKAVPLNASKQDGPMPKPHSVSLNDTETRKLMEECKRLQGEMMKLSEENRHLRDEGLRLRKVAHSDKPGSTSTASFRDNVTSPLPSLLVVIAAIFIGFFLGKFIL", "experiment": "split reporter (BiFC, NanoBiT); BiFC of Venus(N)·VAPA and Venus(C)·VAPA in wt mouse hippocampal neurons, lentiviral; scrambled or ORP2 shRNA; infected DIV 3 and fixed DIV 7, or infected DIV 7 and fixed DIV 14", "conditions": "remark: other sources report otherwise"}, "His·Osh3p": {"molecular_target": "T2, His·Osh3p (S. cerevisiae, UniProt P38713 1-996)", "T2 construct": "Osh3p, PCR amplified and cloned into vector 1509; also called His6-tagged Osh3p; source: bacterial production, purified (Ni-NTA agarose)", "T2 sequence (looked up)": "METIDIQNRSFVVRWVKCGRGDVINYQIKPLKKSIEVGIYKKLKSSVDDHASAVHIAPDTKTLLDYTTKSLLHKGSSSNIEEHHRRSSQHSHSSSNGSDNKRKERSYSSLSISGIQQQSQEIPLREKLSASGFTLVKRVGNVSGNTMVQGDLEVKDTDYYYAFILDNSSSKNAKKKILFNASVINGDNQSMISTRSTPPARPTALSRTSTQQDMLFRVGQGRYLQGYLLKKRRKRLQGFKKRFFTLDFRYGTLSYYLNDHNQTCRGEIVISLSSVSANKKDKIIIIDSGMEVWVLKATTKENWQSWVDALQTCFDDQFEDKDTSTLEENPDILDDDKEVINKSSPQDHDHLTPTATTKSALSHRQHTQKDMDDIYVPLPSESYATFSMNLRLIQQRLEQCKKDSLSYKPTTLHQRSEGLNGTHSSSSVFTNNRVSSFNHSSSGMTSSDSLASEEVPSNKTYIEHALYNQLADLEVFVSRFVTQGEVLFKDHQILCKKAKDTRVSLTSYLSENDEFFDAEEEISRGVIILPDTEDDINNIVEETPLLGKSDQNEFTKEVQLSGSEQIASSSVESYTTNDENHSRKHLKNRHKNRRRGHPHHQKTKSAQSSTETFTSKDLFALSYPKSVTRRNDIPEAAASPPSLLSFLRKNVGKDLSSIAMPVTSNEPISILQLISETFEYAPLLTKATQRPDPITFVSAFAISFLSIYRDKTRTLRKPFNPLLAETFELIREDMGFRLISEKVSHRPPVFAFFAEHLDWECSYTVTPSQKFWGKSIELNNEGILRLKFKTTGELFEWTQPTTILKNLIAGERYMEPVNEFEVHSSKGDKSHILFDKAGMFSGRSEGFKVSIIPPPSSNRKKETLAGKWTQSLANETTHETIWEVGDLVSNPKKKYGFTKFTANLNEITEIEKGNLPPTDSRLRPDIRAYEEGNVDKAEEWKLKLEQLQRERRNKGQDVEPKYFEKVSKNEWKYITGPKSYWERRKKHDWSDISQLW", "experiment": "pull-down; 2 μM GST·Sec9p(421–651) or GST on Glutathione-Agarose, equal molar His·Osh3p, 100 µl PBS + 0.1% Triton X-100, 1 h, room temperature; SDS-PAGE, Coomassie", "conditions": "both partners purified"}},
  "data": [
    {"molecule": "YFP(N)·Sso1p (from UniProt P32867 1-290) (natural protein)", "values": [
      {"measurement": "reduction of the BiFC signal in the Δosh1-3 strain against wt", "setting": "[1]", "result": 19, "unit": "%"}
    ]},
    {"molecule": "Venus(N)·VAPA (lentiviral), Q9P0L0 1-249 (natural protein) MASASGAMAKHEQILVLDPPTDLKFKGPFTDVVTTNLKLRNPSDRKVCFKVKTTAPRRYCVRPNSGIIDPGSTVTVSVMLQPFDYDPNEKSKHKFMVQTIFAPPNTSDMEAVWKEAKPDELMDSKLRCVFEMPNENDKLNDMEPSKAVPLNASKQDGPMPKPHSVSLNDTETRKLMEECKRLQGEMMKLSEENRHLRDEGLRLRKVAHSDKPGSTSTASFRDNVTSPLPSLLVVIAAIFIGFFLGKFIL", "values": [
      {"measurement": "fold reduction of VAPA-VAPA BiFC patches in ORP2 KD cells (transduced DIV 3, fixed DIV 7)", "setting": "[2]", "result": 1.7, "unit": "fold"},
      {"measurement": "fold reduction of VAPA-VAPA BiFC patches in ORP2 KD cells (transduced DIV 7, fixed DIV 14)", "setting": "[2]", "result": 2.3, "unit": "fold"}
    ]},
    {"molecule": "GST·Sec9p(421–651) (domain or fragment, S. cerevisiae, UniProt P40357 421-651, looked up, cut out of 1530 and cloned into 977) EEDEAVDEIKQEIKFTKQSSVASTRNTLKMAQDAERAGMNTLGMLGHQSEQLNNVEGNLDLMKVQNKVADEKVAELKKLNRSILAVHVSNPFNSKRRRREREEQLKNRKIEEKLMREQTSQQLSQSTQRIEGAMNANNNISEVRERYQRKNVLEKAKRYQFENDEEDDEMELEIDRNLDQIQQVSNRLKKMALTTGKELDSQQKRLNNIEESTDDLDINLHMNTNRLAGIR", "values": [
      {"measurement": "binding result", "setting": "His·Osh3p", "result": "binds"}
    ]}
  ]
}
